The text below walks through data of article doi:10.1101/2020.03.06.980961.

Read-outs that look alike come from different tables or passages of the source.

Common to all, as to assay: fluorescence anisotropy
One data set addresses T1, TFB2M-Δ3 (human, UniProt Q9H5Q4 20-393).
T1 sequence: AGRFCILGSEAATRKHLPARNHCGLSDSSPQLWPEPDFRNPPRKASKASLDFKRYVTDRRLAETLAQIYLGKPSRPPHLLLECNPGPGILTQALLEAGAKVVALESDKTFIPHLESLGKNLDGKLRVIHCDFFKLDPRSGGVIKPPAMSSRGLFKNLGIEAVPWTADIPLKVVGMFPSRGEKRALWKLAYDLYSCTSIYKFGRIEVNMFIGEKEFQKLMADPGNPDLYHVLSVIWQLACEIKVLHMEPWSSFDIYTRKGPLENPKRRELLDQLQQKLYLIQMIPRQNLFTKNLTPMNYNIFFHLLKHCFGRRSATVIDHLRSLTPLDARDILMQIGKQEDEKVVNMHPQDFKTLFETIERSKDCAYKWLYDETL

The next data set has as its target T2, TFB2M-Δ13 (human, UniProt Q9H5Q4 20-383).
T2 sequence: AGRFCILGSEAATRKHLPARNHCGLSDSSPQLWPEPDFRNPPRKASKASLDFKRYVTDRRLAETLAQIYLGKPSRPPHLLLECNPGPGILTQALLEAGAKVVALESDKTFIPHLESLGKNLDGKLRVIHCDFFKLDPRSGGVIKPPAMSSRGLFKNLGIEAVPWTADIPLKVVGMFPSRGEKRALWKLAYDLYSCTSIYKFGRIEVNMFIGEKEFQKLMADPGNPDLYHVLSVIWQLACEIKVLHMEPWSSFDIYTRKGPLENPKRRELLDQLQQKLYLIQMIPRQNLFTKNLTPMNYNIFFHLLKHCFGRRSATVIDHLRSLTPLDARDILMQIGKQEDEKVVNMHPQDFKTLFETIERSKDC

In data set [1] the target is T3, TFB2M-WT (human, UniProt Q9H5Q4 20-396).
T3 sequence: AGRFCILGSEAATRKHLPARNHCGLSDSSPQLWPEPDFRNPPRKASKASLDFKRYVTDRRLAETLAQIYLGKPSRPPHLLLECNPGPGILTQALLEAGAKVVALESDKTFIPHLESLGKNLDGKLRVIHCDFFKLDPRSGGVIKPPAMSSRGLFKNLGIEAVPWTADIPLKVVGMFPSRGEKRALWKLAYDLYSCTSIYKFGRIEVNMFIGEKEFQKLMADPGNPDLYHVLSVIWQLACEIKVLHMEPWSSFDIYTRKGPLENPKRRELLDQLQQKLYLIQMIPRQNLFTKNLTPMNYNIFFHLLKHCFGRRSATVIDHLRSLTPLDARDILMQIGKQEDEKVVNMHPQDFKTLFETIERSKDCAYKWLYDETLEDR

The target in data set [2] is T3, TFB2M-WT. The source holds these as a separate data set.
For data set [3], the target named is T3, TFB2M-WT. This is another data set of the same source.
The target of data set [4] is T3, TFB2M-WT. This is another data set of the same source.
Data set [5] deals with T4, Mtf1-Δ20 (Saccharomyces cerevisiae, UniProt P14908 1-321).
T4 sequence: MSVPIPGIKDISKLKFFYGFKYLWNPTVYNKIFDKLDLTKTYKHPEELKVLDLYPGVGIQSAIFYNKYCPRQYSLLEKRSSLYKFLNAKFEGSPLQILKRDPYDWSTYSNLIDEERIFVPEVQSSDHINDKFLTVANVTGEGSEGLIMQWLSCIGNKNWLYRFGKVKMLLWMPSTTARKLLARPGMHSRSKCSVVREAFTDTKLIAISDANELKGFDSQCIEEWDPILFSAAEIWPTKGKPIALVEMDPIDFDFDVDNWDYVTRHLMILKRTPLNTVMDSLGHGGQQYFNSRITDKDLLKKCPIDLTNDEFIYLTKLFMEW

The target of data set [6] is T4, Mtf1-Δ20. This is another data set of the same source.

B1: LSP NT (ssDNA)
DNA: TACCGCCAAAAG
One may read the Kd as the concentration at which binding is half-saturated. High values mean a looser complex, low ones a tighter complex. With B1, the figures for the Kd in the data set with TFB2M-Δ3, with TFB2M-Δ13 and in the data set with TFB2M-WT [1] were 92 ± 3.3 nM, 46 ± 5.2 nM and 169 ± 18 nM, respectively.

B2: dT12 (ssDNA)
DNA: TTTTTTTTTTTT
Take B2: the binding result with TFB2M-WT [2] is recorded as “binds”.

B3: LSP duplex (dsDNA)
DNA 1: TACCGCCAAAAG
DNA 2: CTTTTGGCGGTA
For the molecule B3, the binding signal with TFB2M-WT [3] is ~3 fold higher affinity than LSP NT.

B4: 15S NT (ssDNA)
DNA: ATATAAGTAATA
With B4, the figures for the Kd in the data set with TFB2M-WT [4], with Mtf1-Δ20 [5] and with Mtf1-Δ20 [6] were 130 nM, roughly 870 nM and 51 ± 2.8 nM, respectively.
